Test results: patent US20230357447A1 (JANUX THERAPEUTICS, published 2023)

Key:
[1] = target: T1, anti-CD28 scFv (VH-linker 1-VL) (biotinylated (site not stated)); test: phage ELISA; scFv wells pre-incubated with soluble CD28 (competitor);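 also: crude clonal phage supernatants added to wells pretreated with soluble CD28 in blocking buffer, bound phage read via HRP-linked anti-M13 antibody, reference wells got blocking buffer only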
T1 construct: Captured as biotinylated scFv on neutravidin coated plates in the phage ELISA

[2] = target: T1, anti-CD28 scFv (VH-linker 1-VL); test: phage ELISA; biotinylated scFv on neutravidin plate; anti-M13-HRP;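 also: crude clonal phage supernatant added to wells pre-incubated with soluble CD28 protein or only blocking buffer, then washed, bound phage read out with an HRP-linked anti-M13 antibody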
Procedure: (§1) Clonal phage were harvested as crude supernatants and screened via standard enzyme linked immunosorbent assays (ELISAs). […] Prior to the addition of clonal phage, wells were incubated with blocking buffer and CD28 soluble protein or blocking buffer alone. Without washing or aspirating, clonal phage supernatants were then added to the wells and incubated for a short time. Wells were then washed followed by detection of bound phage using a horse radish peroxidase conjugated anti-M13 antibody.

[3] = target: Anti-CD28 scFv (VH-linker 1-VL); test: phage ELISA: biotinylated anti-CD28 scFv on neutravidin plate, clonal phage supernatant, anti-M13-HRP; wells pre-incubated with soluble CD28 (competitor);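 as to Phage binding ELISA CD28 scFv signal in presence of CD28: wells pretreated with soluble CD28 protein in blocking buffer before phage addition, no wash in between, reference wells got blocking buffer only, bound phage detected after washing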
Procedure: as §1

[4] = target: Anti-CD28 scFv (VH-linker 1-VL); test: phage ELISA: biotinylated anti-CD28 scFv on neutravidin plate, clonal phage supernatant, anti-M13-HRP;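 also: before phage addition, wells were preincubated either with soluble CD28 protein in blocking buffer or with blocking buffer only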
Procedure: as §1

T1 sequence (scFv, as listed by the source): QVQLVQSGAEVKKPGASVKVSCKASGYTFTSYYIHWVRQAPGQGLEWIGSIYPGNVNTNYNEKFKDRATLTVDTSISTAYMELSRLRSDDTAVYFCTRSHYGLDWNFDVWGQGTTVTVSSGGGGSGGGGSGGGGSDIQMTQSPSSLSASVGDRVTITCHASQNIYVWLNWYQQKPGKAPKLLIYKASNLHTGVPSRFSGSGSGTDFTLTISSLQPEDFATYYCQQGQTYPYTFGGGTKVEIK
Anti-CD28 scFv (VH-linker 1-VL), sequence (scFv, as listed by the source): as above

| Binder | CD28 scFv signal in presence of CD28 [1] | CD28 scFv signal [2] | Phage binding ELISA CD28 scFv signal in presence of CD28 [3] | Phage binding ELISA CD28 scFv signal [4] |
| --- | --- | --- | --- | --- |
| MDWCPTYLWHVCFS (on phage (pIII fusion)) [Phage-315 clonal phage peptide] | 0.16 | 2.32 |  |  |
| MDWCPTSFWNRCFH (on phage (pIII fusion)) [Phage-271 clonal phage peptide] | 0.092 | 0.087 |  |  |
| MDWCPRALWDHCFF (on phage (pIII fusion)) [Phage-292 clonal phage peptide] | 0.394 | 2.49 |  |  |
| MDWCPRDLWDECFN (on phage (pIII fusion)) [Phage-310 clonal phage peptide] | 0.248 | 2.37 |  |  |
| MFLCPSAMWNRCFY (Clonal phage from the Peptide-9 library) [Phage-426] |  |  | 0.114 | 0.094 |
| MDWCPRYLWAECFN (on phage (pIII fusion)) [Phage-279 clonal phage peptide] | 1.14 | 2.74 |  |  |
| MDWCPIYLWAECFN (on phage (pIII fusion)) [Phage-299 clonal phage peptide] | 0.307 | 2.45 |  |  |
| MDWCPRDHWVDCYS (on phage (pIII fusion)) [Phage-275 clonal phage peptide] | 0.092 | 0.671 |  |  |
| MAWCPADQWHECFN (Clonal phage from the Peptide-9 library) [Phage-431] |  |  | 0.456 | 1.84 |
| MDWCPKFLWDECFA (on phage (pIII fusion)) [Phage-304 clonal phage peptide] | 0.376 | 2.41 |  |  |
| MDLCPTAMWNRCFY (Clonal phage from the Peptide-9 library) [Phage-425] |  |  | 0.084 | 0.097 |
| MSWCPRDLWHLCFF (on phage (pIII fusion)) [Phage-319 clonal phage peptide] | 0.319 | 2.27 |  |  |
| MDWCPTYLWNECFN (on phage (pIII fusion)) [Phage-320 clonal phage peptide] | 0.606 | 2.24 |  |  |
| MDWCPIALWDFCFA (on phage (pIII fusion)) [Phage-288 clonal phage peptide] | 0.492 | 2.52 |  |  |
| IHLCHWVPWIKCSH (Clonal phage from the Peptide-9 library) [Phage-430] |  |  | 2.51 |  |
| MAWCPWAQFDECLA (Clonal phage from the Peptide-9 library) [Phage-433] |  |  | 0.078 | 0.071 |
| MAWCPWASFDECLA (Clonal phage from the Peptide-9 library) [Phage-448] |  |  | 0.109 | 0.089 |
| IDWCPIIQGLPCFA (Clonal phage from the Peptide-9 library) [Phage-432] |  |  | 0.065 | 0.368 |
| MYWCATSMWNRCFV (on phage (pIII fusion)) [Phage-262 clonal phage peptide] | 0.415 | 0.398 |  |  |
| MDWCPRDLWYVCFA (on phage (pIII fusion)) [Phage-321 clonal phage peptide] | 0.138 | 2.22 |  |  |
| MDWCPRHMWHECFA (on phage (pIII fusion)) [Phage-263 clonal phage peptide] | 0.298 | 2.52 |  |  |
| MDWCPRDLWYQCFN (on phage (pIII fusion)) [Phage-311 clonal phage peptide] | 0.609 | 2.35 |  |  |
| MDWCPRSLWDYCFA (on phage (pIII fusion)) [Phage-294 clonal phage peptide] | 0.235 | 2.49 |  |  |
| MDWCPRSLWNYCFA (on phage (pIII fusion)) [Phage-316 clonal phage peptide] | 0.198 | 2.32 |  |  |

| Binder | CD28 scFv signal in presence of CD28 [1] | CD28 scFv signal [2] | Phage binding ELISA CD28 scFv signal in presence of CD28 [3] | Phage binding ELISA CD28 scFv signal [4] |
| --- | --- | --- | --- | --- |
| MDWCPRYLWDYCFA (on phage (pIII fusion)) [Phage-280 clonal phage peptide] | 0.382 | 2.71 |  |  |
| MDWCPRSLWNYCFN (on phage (pIII fusion)) [Phage-313 clonal phage peptide] | 0.209 | 2.35 |  |  |
| VILCPTTMWNRCFH (Clonal phage from the Peptide-9 library) [Phage-427] |  |  | 0.084 | 0.072 |
| VTSCPTTMWNRCFS (on phage (pIII fusion)) [Phage-266 clonal phage peptide] | 0.546 | 1.22 |  |  |
| MERCPRYLWHMCYS (on phage (pIII fusion)) [Phage-286 clonal phage peptide] | 0.84 | 2.59 |  |  |
| DSFCTWSAWQECGR (on phage (pIII fusion)) [Phage-269 clonal phage peptide] | 0.101 | 0.13 |  |  |
| MVWCMSVGWAVCLN (on phage (pIII fusion)) [Phage-272 clonal phage peptide] | 0.284 | 0.271 |  |  |
| MNWCPSTMWNRCLT (Clonal phage from the Peptide-9 library) [Phage-428] |  |  | 0.07 | 0.065 |
| MDWCPRDFWAFCFF (on phage (pIII fusion)) [Phage-270 clonal phage peptide] | 0.655 | 2.37 |  |  |
| MDWCPRHLWHECFT (on phage (pIII fusion)) [Phage-317 clonal phage peptide] | 0.32 | 2.3 |  |  |
| MDWCPRYLWPVCFH (on phage (pIII fusion)) [Phage-307 clonal phage peptide] | 0.602 | 2.39 |  |  |
| MDWCPRSHWSECFS (on phage (pIII fusion)) [Phage-277 clonal phage peptide] | 0.087 | 0.253 |  |  |
| WVSCLRHHWLECFH (on phage (pIII fusion)) [Phage-274 clonal phage peptide] | 0.858 | 0.723 |  |  |
| MDWCPRDLWFACFA (on phage (pIII fusion)) [Phage-282 clonal phage peptide] | 0.794 | 2.66 |  |  |
| ITQCPSTMWNRCSV (Clonal phage from the Peptide-9 library) [Phage-424] |  |  | 0.108 | 0.098 |
| MDWCPVFMWNECFN (on phage (pIII fusion)) [Phage-260 clonal phage peptide] | 0.356 | 2.66 |  |  |
| MDWCPRDLWSVCFS (on phage (pIII fusion)) [Phage-290 clonal phage peptide] | 0.116 | 2.5 |  |  |
| MDWCPRDLWAMCFA (on phage (pIII fusion)) [Phage-285 clonal phage peptide] | 0.889 | 2.63 |  |  |
| INLCPTPMWNRCWL (Clonal phage from the Peptide-9 library) [Phage-423] |  |  | 0.101 | 0.103 |
| MDWCPRSLWFLCFN (on phage (pIII fusion)) [Phage-281 clonal phage peptide] | 1.77 | 2.71 |  |  |
| MDWCPKSLWAECFN (on phage (pIII fusion)) [Phage-308 clonal phage peptide] | 0.162 | 2.38 |  |  |
| MTLCLSVDLVHCWY (on phage (pIII fusion)) [Phage-267 clonal phage peptide] | 0.093 | 0.632 |  |  |
| IDWCPKIHWDLCYF (on phage (pIII fusion)) [Phage-276 clonal phage peptide] | 0.082 | 0.295 |  |  |
